Assay results: US20170233490A1 (Hoffmann-La Roche, published 2017)

How the values were obtained:
[1] = biological target: T1, human HER1 (full length, on cells) (human, UniProt P00533 25-1210); test: IHC (Ventana Benchmark XT) on formalin-fixed, paraffin-embedded HEK293 cells transiently transfected with full length HER1
T1 construct: HEK293 cells transfected with full length HER1, fixed and embedded (IHC); also called EGFR
Description: All selected clones were tested for reactivity and specificity in IHC. […] After an additional fixation in formalin overnight the Agarose blocks were embedded in paraffin. Untransfected HEK293 cells were used as negative controls and treated accordingly to the transfected cells. After paraffin embedding 3 μm thin sections were prepared using a microtome. The sections were mounted on glass microscopy slides and dried for 2 h. All further steps of the immunohistochemical staining procedure were carried out using a Ventana Benchmark XT. The slides were dewaxed and antigen retrieval was performed by applying heat for 1 hour. For antigen retrieval the Ventana buffer CC1 was used. The antibodies were used at a concentration of 1 μg/ml. For the detection of bound antibody the Ventana UltraView detection kit was used.

[2] = biological target: T2, TtSlyD-FKBP-Her3; test: SPR Biacore 3000, antibody captured, 25 C
T2 construct: N-terminal Met present or not; also called thermo SlyD-Her3; ttSlyD-Her3
T2 chain: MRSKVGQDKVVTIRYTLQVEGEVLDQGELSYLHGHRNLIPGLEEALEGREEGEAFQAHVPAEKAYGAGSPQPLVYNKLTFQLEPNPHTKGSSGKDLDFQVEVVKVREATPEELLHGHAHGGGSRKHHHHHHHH
Description: (§1) A CMS series sensor was mounted into the system and was normalized in HBS-ET buffer (10 mM HEPES pH 7.4, 150 mM NaCl, 3 mM EDTA, 0.005% w/v Tween 20) according to the manufacturer's instructions. The sample buffer was the system buffer supplemented with 1 mg/ml CMD (Carboxymethyldextran). The system operated at 25° C. 10000 RU RAM-Fcγ (relative units of Fcγ-fragment Rabbit Anti-Mouse IgG/Jackson Laboratories) were immobilized according to the manufacturer's instructions using EDC/NHS chemistry on all flow cells. The sensor was deactivated using 1M ethanolamine. Analytes in solution were injected at 100 μl/min at different concentration steps of 0 nM, 1.1 nM, 3.7 nM, 11.1 nM, 33.1 nM and 90 nM for 2 min. The dissociation was monitored for 5 min. Acidic regeneration of the sensor surface was achieved using three consecutive injections of 10 mM Glycine pH 1.7 at 30 μl/min for 60 sec. Kinetic data were evaluated according to a Langmuir fit.

[3] = biological target: T3, HER3 ECD-HRG complex (human, UniProt P21860 20-643); test: SPR Biacore 3000, antibody captured, 25 C
T3 construct: HER3 ECD preincubated with a 3- to 6-fold molar excess of Heregulin ('open' conformation); biotinylated Her3-ECD in the ribosome display; also called HER3-ECD/HRG1β
Description: as §1

[4] = biological target: T4, human HER3 Extracellular Domain (ECD) (human, UniProt P21860 20-643); test: SPR Biacore 3000, antibody captured, 25 C
T4 construct: human recombinant, 68 kDa; 'closed' conformation without ligand; also called Her3 ECD; Her-3 ECD
Description: as §1

[5] = biological target: T2, TtSlyD-FKBP-Her3; test: SPR Biacore 4000, antibody captured, analyte 150 nM, 25 C
Description: (§2) Prior to their application the hybridoma culture supernatants were diluted 1:5 in instrument buffer. The diluted mixtures were injected at a flow rate of 30 μl/min for 2 min. The antibody capture level (CL) in response units was monitored. Immediately thereafter the respective antigen was injected at a flow rate of 30 μl/min for 3 min association time. Thereafter, the antibody-antigen complex dissociation signal was recorded for 5 min. The sensor was regenerated by injecting a 10 mM glycine-HCl solution (pH 1.7) for 2 min at a flow rate of 30 μl/min. The recorded signal shortly before the end of the injection of the antigen was denoted as binding late (BL) in response units. The recorded signal shortly before the end of the recording of the dissociation is denoted as stability late (SL) in response units. The dissociation rate constants were determined calculated The antibody-antigen complex stability in minutes was calculated with the following formula: ln(2)/60*kd. The Molar Ratio was calculated with the formula: MW (antibody)/MW(antigen)*BL (antigen)/CL (antibody).
(§3) Binding Late (BL) represents the response units at the end of the analyte injection. The amount of antibody captured as a ligand on the sensor surface is measured as Capture Level (CL) in response units. Together with the information of the molecular weights of the tested analytes, the antibody and the analyte in solution, the Molar Ratio can be calculated. […] Then, the Molar Ratio is also an indicator for the valence mode of analyte binding. The maximum valence can be MR=2 for an antibody binding two analytes, one with each Fab valence.

[6] = biological target: T4, human HER3 Extracellular Domain (ECD); test: as above
Description: as §2, §3

[7] = biological target: T3, HER3 ECD-HRG complex; test: SPR Biacore T100; reference: HER3-ECD without Heregulin
Description: A CM5 series sensor was mounted into the system and was normalized in HBS-ET buffer (10 mM HEPES pH 7.4, 150 mM NaCl, 3 mM EDTA, 0.005% w/v Tween 20) according to the manufacturer's instructions. The sample buffer was the system buffer supplemented with 1 mg/ml CMD (Carboxymethyldextran, Sigma #86524). The system operated at 25° C. 6500 RU RAM-Fcγ (relative units of Fcγ-fragment RamIgG, GE Healthcare) were immobilized according to the manufacturer's instructions using EDC/NHS chemistry on all four flow cells. The sensor was deactivated using 1M ethanolamine.

[8] = biological target: T5, TgSlyDΔIF; test: ELISA, coated antigen 0.5 µg/ml, hybridoma supernatant
T5 construct: scaffold without hairpin insert, negative control
T5 chain: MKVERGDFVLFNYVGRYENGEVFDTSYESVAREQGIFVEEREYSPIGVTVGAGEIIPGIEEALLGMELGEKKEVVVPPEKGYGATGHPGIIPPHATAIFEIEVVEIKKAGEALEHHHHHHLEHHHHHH
Description: For the ELISA the screening an antigen down format was used. […] Hybridoma Supernatant was added to the plates and incubated for 1 h at room temperature. Bound antibody was detected with a HRP-labeled F(ab′)₂ goat anti-mouse Fcγ (Dianova) and ABTS (Roche) was used as a HRP-substrate.

binding result [1]: no binding (tested: 1 µg/ml)
BL (Binding Late) [2]: 68.1 RU
MR (Molar Ratio) [2]: 1.5
kon [2]: 87500 M⁻¹ s⁻¹
t/2-diss [2]: 4.9 min
BL (Binding Late) [3]: 199 RU
MR (Molar Ratio) [3]: 0.8
kon [3]: 66000 M⁻¹ s⁻¹
t/2-diss [3]: 18 min
BL (Binding Late) [4]: 36 RU
MR (Molar Ratio) [4]: 0.2
kon [4]: 20400 M⁻¹ s⁻¹
t/2-diss [4]: 28 min
MR (Molar Ratio) [5]: 1.1
koff [5]: 0.00012 s⁻¹
MR (Molar Ratio) [6]: 0.5
koff [6]: < 1e-05 s⁻¹
ratio MR (+Heregulin)/MR (-Heregulin) [7]: 3 fold
ratio ka (Her3-ECD-HRG)/ka (Her3-ECD) [7]: 4.85 fold
binding result [8]: no binding
B1: anti-HER3/HER4 antibody M-05-74 (antibody, V domains shown)
VH: QVQLQQSGAELAKPGASVKMSCKTSGYTLTDYWIHWVKQRPGQGLEWIGYINPYTGYTESNQKFKDKATLTADKSSNTAYIQLSSLTSEDSAVYYCARPYYYGDYWGQGTTLTVSS
VL: QIVLTQSPAIMSASPGERVTITCSASSSVSYMHWFQQKPGTSPKLLIYSTSNLASGVPARFSGSGSGTSYSLTISRMEAEDAATYYCQQRSSYPFTFGSGTKLEIK
notes: murine monoclonal IgG from hybridoma (supernatant or purified), bivalent; also called M-074; M-5-74
